Data on one molecule can be found in publication PMC8548718 (Frontiers in Molecular Biosciences, 2021).

This test concerns the target T1, PD1-Fc (UniProt Q15116).
T1 construct: PD-1 (programmed cell death protein 1); most likely the extracellular domain of human PD-1 on a human IgG Fc
Description: BLI; BLItz system; biotinylated 102c3 nanobody immobilised on SA2 biosensors, dipped in serial dilutions of PD1-Fc. The following applies: both partners purified. On the technique in general: BLI is a label-free optical method that tracks binding on a fibre tip over time.

T1 sequence (Q15116 25-170): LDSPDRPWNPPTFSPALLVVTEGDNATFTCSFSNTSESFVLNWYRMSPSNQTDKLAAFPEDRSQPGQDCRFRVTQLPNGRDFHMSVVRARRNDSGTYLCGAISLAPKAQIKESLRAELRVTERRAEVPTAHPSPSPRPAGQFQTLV

B1: nanobody 102c3 (anti-PD1 single-domain antibody, VHH), biotinylated (VHH)
VHH: EVQLVESGGGLVQAGKSLRLSCAASGSIFSIHAMGWFRQAPGKEREFVAAITWSGGITYYEDSVKGRFTISRDNAKNTVYLQMNSLKPEDTAIYYCAADRAESSWYDYWGQGTQVTVSS
notes: the whole synthesised fragment translates to MGSR...PQPDPSP; also called 102c3 nanobody; 102c3 VHH; source: E. coli BL21DE3-BirA, periplasm extract, purified (HIS Mag Sepharose Excel, dialysis against PBS); not shown: biotinylation signal, C-terminal, kept
For B1, the binding result was “binds”.
